B1: Hairpin Ribozyme (parent)
chain: GUCCUCUUUCACGUGCGCGUGAAAGAGAGAAGUGAACCAGAGAAACACACGUUGUGGUAUAUUACCUGGUA

Variants of: B1
Assay: self-cleavage, relative activity (ratio to wild type); higher = more cleavage; co-transcriptional
Work on GUCCUCAUUCACGUGCGCGUGAAAGAGAGAAUUGAACCAGAGAAACACACGUUGUGGUAUAUUACCUGGUA [U7A G32U] yielded a self-cleavage of 0.149.
Variant GUCCUCAUUCACGUGCGCGUGAAAGAGAGAAGUCAACCAGAGAAACACACGUUGUGGUAUAUUACCUGGUA [U7A G34C] has a self-cleavage of 1.36.
With GUCCUCAUUCACGUGCGCGUGAAAGAGAGAAGUUAACCAGAGAAACACACGUUGUGGUAUAUUACCUGGUA [U7A G34U] the self-cleavage was 1.4.
Variant GUCCUCAUUCACGUGCGCGUGAAAGAGAGAAGUGAACCAGACAAACACACGUUGUGGUAUAUUACCUGGUA [U7A G42C] has a self-cleavage of 0.357.
In the case of GUCCUCAUUCACGUGCGCGUGAAAGAGAGAAGUGAACCAGAUAAACACACGUUGUGGUAUAUUACCUGGUA [U7A G42U], the self-cleavage is reported as 0.173.
For GUCCUCAUUCACGUGCGCGUGAAAGAGAGAAGUGAACCAGAGAAACACACCUUGUGGUAUAUUACCUGGUA [U7A G51C], the self-cleavage was 0.972.
For GUCCUCAUUCACGUGCGCGUGAAAGAGAGAAGUGAACCAGAGAAACACACGUUAUGGUAUAUUACCUGGUA [U7A G54A], the self-cleavage was 0.535.
With GUCCUCAUUCACGUGCGCGUGAAAGAGAGAAGUGAACCAGAGAAACACACGUUGUCGUAUAUUACCUGGUA [U7A G56C] the self-cleavage was 0.176.
GUCCUCAUUCACGUGCGCGUGAAAGAGAGAAGUGAACCAGAGAAACACACGUUGUUGUAUAUUACCUGGUA [U7A G56U] gave a self-cleavage of 0.128.
Variant GUCCUCAUUCACGUGCGCGUGAAAGAGAGAAGUGAACCAGAGAAACACACGUUGUGUUAUAUUACCUGGUA [U7A G57U] has a self-cleavage of 0.253.
GUCCUCAUUCACGUGCGCGUGAAAGAGAGAAGUGAACCAGAGAAACACACGUUGUGGUAUAUUACCUAGUA [U7A G68A] showed a self-cleavage of 0.28.
For GUCCUCAUUCACGUGCGCGUGAAAGAGAGAAGUGAACCAGAGAAACACACGUUGUGGUAUAUUACCUCGUA [U7A G68C], the self-cleavage was 0.146.
With GUCCUCACUCACGUGCGCGUGAAAGAGAGAAGUGAACCAGAGAAACACACGUUGUGGUAUAUUACCUGGUA [U7A U8C] the self-cleavage was 0.559.
For GUCCUCAUUCACGAGCGCGUGAAAGAGAGAAGUGAACCAGAGAAACACACGUUGUGGUAUAUUACCUGGUA [U7A U14A], the self-cleavage was 1.03.
Variant GUCCUCAUUCACGGGCGCGUGAAAGAGAGAAGUGAACCAGAGAAACACACGUUGUGGUAUAUUACCUGGUA [U7A U14G] has a self-cleavage of 0.881.
In the case of GUCCUCAUUCACGUGCGCGGGAAAGAGAGAAGUGAACCAGAGAAACACACGUUGUGGUAUAUUACCUGGUA [U7A U20G], the self-cleavage is reported as 0.705.
Variant GUCCUCAUUCACGUGCGCGUGAAAGAGAGAAGGGAACCAGAGAAACACACGUUGUGGUAUAUUACCUGGUA [U7A U33G] has a self-cleavage of 0.0989.
GUCCUCAUUCACGUGCGCGUGAAAGAGAGAAGUGAACCAGAGAAACACACGCUGUGGUAUAUUACCUGGUA [U7A U52C] gave a self-cleavage of 0.953.
For GUCCUCAUUCACGUGCGCGUGAAAGAGAGAAGUGAACCAGAGAAACACACGUUGUGGAAUAUUACCUGGUA [U7A U58A], the self-cleavage was 0.58.
In the case of GUCCUCAUUCACGUGCGCGUGAAAGAGAGAAGUGAACCAGAGAAACACACGUUGUGGUAUAAUACCUGGUA [U7A U62A], the self-cleavage is reported as 0.177.
GUCCUCAUUCACGUGCGCGUGAAAGAGAGAAGUGAACCAGAGAAACACACGUUGUGGUAUAUCACCUGGUA [U7A U63C] showed a self-cleavage of 0.102.
GUCCUCAUUCACGUGCGCGUGAAAGAGAGAAGUGAACCAGAGAAACACACGUUGUGGUAUAUGACCUGGUA [U7A U63G] gave a self-cleavage of 0.199.
Work on GUCCUCAUUCACGUGCGCGUGAAAGAGAGAAGUGAACCAGAGAAACACACGUUGUGGUAUAUUACCAGGUA [U7A U67A] yielded a self-cleavage of 0.223.
With GUCCUCAUUCACGUGCGCGUGAAAGAGAGAAGUGAACCAGAGAAACACACGUUGUGGUAUAUUACCGGGUA [U7A U67G] the self-cleavage was 0.282.
For GUCCUCAUUCACGUGCGCGUGAAAGAGAGAAGUGAACCAGAGAAACACACGUUGUGGUAUAUUACCUGGAA [U7A U70A], the self-cleavage was 0.766.
Variant GUCCUCAUUCACGUGCGCGUGAAAGAGAGAAGUGAACCAGAGAAACACACGUUGUGGUAUAUUACCUGGGA [U7A U70G] has a self-cleavage of 0.921.
Variant GUCCUCCUUCACGUGCGCGUGAAAGAGAGAAGUGAACCAGAGAAACACACGUUGUGGUAUAUUACCUGGUA [U7C] has a self-cleavage of 0.894.
GUCCUCCUUCGCGUGCGCGUGAAAGAGAGAAGUGAACCAGAGAAACACACGUUGUGGUAUAUUACCUGGUA [U7C A11G] showed a self-cleavage of 0.684.
For GUCCUCCUUCUCGUGCGCGUGAAAGAGAGAAGUGAACCAGAGAAACACACGUUGUGGUAUAUUACCUGGUA [U7C A11U], the self-cleavage was 0.294.
GUCCUCCUUCACGUGCGCGUGCAAGAGAGAAGUGAACCAGAGAAACACACGUUGUGGUAUAUUACCUGGUA [U7C A22C] gave a self-cleavage of 0.178.
For GUCCUCCUUCACGUGCGCGUGGAAGAGAGAAGUGAACCAGAGAAACACACGUUGUGGUAUAUUACCUGGUA [U7C A22G], the self-cleavage was 0.565.
GUCCUCCUUCACGUGCGCGUGAAAGUGAGAAGUGAACCAGAGAAACACACGUUGUGGUAUAUUACCUGGUA [U7C A26U] showed a self-cleavage of 0.176.
Work on GUCCUCCUUCACGUGCGCGUGAAAGAGGGAAGUGAACCAGAGAAACACACGUUGUGGUAUAUUACCUGGUA [U7C A28G] yielded a self-cleavage of 1.02.
GUCCUCCUUCACGUGCGCGUGAAAGAGAGAAGUGAACCAGUGAAACACACGUUGUGGUAUAUUACCUGGUA [U7C A41U] showed a self-cleavage of 0.98.
In the case of GUCCUCCUUCACGUGCGCGUGAAAGAGAGAAGUGAACCAGAGCAACACACGUUGUGGUAUAUUACCUGGUA [U7C A43C], the self-cleavage is reported as 0.0702.
GUCCUCCUUCACGUGCGCGUGAAAGAGAGAAGUGAACCAGAGAUACACACGUUGUGGUAUAUUACCUGGUA [U7C A44U] showed a self-cleavage of 0.106.
In the case of GUCCUCCUUCACGUGCGCGUGAAAGAGAGAAGUGAACCAGAGAACCACACGUUGUGGUAUAUUACCUGGUA [U7C A45C], the self-cleavage is reported as 0.136.
Work on GUCCUCCUUCACGUGCGCGUGAAAGAGAGAAGUGAACCAGAGAAGCACACGUUGUGGUAUAUUACCUGGUA [U7C A45G] yielded a self-cleavage of 0.104.

Source: the RNAGym collection of RNA variant scans (doi:10.7554/elife.80360)
